Results from US20200255508A1.

Legend:
[1] = target: cynomolgus monkey DLL4 extracellular domain (cynomolgus monkey); experiment: Biacore SPR
[2] = target: cyno DLL4-his (cynomolgus monkey); experiment: ELISA on DLL4-his

Row | Binder | Kd [1] [nM] | EC50 [2] [nM] | koff [1] [s⁻¹] | kon [1] [M⁻¹ s⁻¹]
1 | E9-SE7 (antibody, V domains shown) VH: EVQLVESGGGLVQPGGSLRLSCAVSGGSISSSSYYWGWIRQAPGKGLEWIGDIYYTGSTYYNPSLKSRVTISVDTSKNSFYLQMNSLRAEDTAVYYCAREDVILRGGSDYWGQGTLVTVSS VL: EYVLTQSPDFQSVTPKEKVTITCSGQRLGDKYASWYQQKPDQSPKLVIYEDSKRPSGVPSRFSGSNSGDDATLTINSLEAEDAATYYCQAWDRDTGVFGQGTKVEIKR | 7.53 | 0.12 | – | –
2 | E9-SE8 (antibody, V domains shown) VH: EVQLQESGPGLVKPGETLSLTCTVSGGSISSSSYYWGWIRQAPGKGLEWIGDIYYTGSTYYNPSLKSRVTISVDTSKNQFYLKLSSVRAEDTAVYYCAREDVILRGGSDYWGQGTLVTVSS VL: EYVLTQSPDFQSVTPKEKVTITCSGQRLGDKYASWYQQKPDQSPKLVIYEDSKRPSGVPSRFSGSNSGDDATLTINSLEAEDAATYYCQAWDRDTGVFGQGTKVEIKR | 3.41 | 0.14 | – | –
3 | E9-SE2 (antibody, V domains shown) VH: EVQLVESGGGLVQPGGSLRLSCAVSGGSISSSSYYWGWIRQAPGKGLEWIGDIYYTGSTYYNPSLKSRVTISVDTSKNSFYLQMNSLRAEDTAVYYCAREDVILRGGSDYWGQGTLVTVSS VL: SYELTQPPSVSVSPGQTASITCSGQRLGDKYASWYQQKPGQSPVLVIYEDSKRPSGIPERFSGSNSGDTATLTISGTQPMDEADYYCQAWDRDTGVFGYGTRVTVLG | 3.68 | 0.14 | – | –
4 | E9-SE5 (antibody, V domains shown) VH: EVQLQESGPGLVKPSETLSLTCTVSGGSISSSSYYWGWIRQPPGKGLEWIGDIYYTGSTYYNPSLKSRVTISVDTSKNQFSLKLSSVTAADTAVYYCAREDVILRGGSDYWGQGTLVTVSS VL: EYVLTQSPDFQSVTPKEKVTITCSGQRLGDKYASWYQQKPDQSPKLVIYEDSKRPSGVPSRFSGSNSGDDATLTINSLEAEDAATYYCQAWDRDTGVFGQGTKVEIKR | 6.7 | 0.13 | – | –
5 | E9-SE1 (antibody, V domains shown) VH: EVQLVESGGGLVQPGGSLRLSCAVSGGSISSSSYYWGWIRQAPGKGLEWIGDIYYTGSTYYNPSLKSRVTISVDTSKNSFYLQMNSLRAEDTAVYYCAREDVILRGGSDYWGQGTLVTVSS VL: LYVLTQPPSVSVSPGQTASITCSGQRLGDKYASWYQQKPGQSPVLVIYEDSKRPSGIPERFSGSNSGDTATLTISGTQTMDEADYLCQAWDRDTGVFGGGTKVTVLG | 5.42 | 0.14 | – | –
6 | E9.4 (antibody, V domains shown) VH: EVQLQESGPGLVKPSETLSLTCTVSGGSISSSSYYWGWIRQPPGKGLEWIGDIYYTGSTYYNPSLKSRVTISVDTSKNQFSLKLSSVTAADTAVYYCARYDVSLGGSSDHWGQGTLVTVSS VL: SYELTQPPSVSVSPGQTASITCSGQRLGDKYASWYQQKPGQSPVLVIYEDSKRPSGIPERFSGSNSGDTATLTISGTQPMDEADYYCQAWDRDTGVFGYGTKVTVL | 0.25 | – | 3.44e-05 | 137000
7 | E9-SE3 (antibody, V domains shown) VH: EVQLQESGPGLVKPGETLSLTCTVSGGSISSSSYYWGWIRQAPGKGLEWIGDIYYTGSTYYNPSLKSRVTISVDTSKNQFYLKLSSVRAEDTAVYYCAREDVILRGGSDYWGQGTLVTVSS VL: SYELTQPPSVSVSPGQTASITCSGQRLGDKYASWYQQKPGQSPVLVIYEDSKRPSGIPERFSGSNSGDTATLTISGTQPMDEADYYCQAWDRDTGVFGYGTRVTVLG | 3.42 | 0.14 | – | –
8 | E9.14 (antibody, V domains shown) VH: EVQLQESGPGLVKPSETLSLTCTVSGGSISNSRYHWGWIRQSPGKGLEWIGDIYYTGSTYYNPSLKSRVTISVDTSKNQFSLKLSSVTAEDTAVYYCAREDVILRGGSDYWGQGTLVTVSS VL: SYELTQPPSVSVSPGQTASITCSGQRLGDKYASWYQQKPGQSPVLVIYEDSKRPSGIPERFSGSNSGDTATLTISGTQPMDEADYYCQAWDRDTGVFGYGTKVTVL | 6.75 | – | 0.000386 | 57200
9 | E9.22 (antibody, V domains shown) VH: EVQLQESGPGLVKPSETLSLTCTVSGGSISNSRYHWGWIRQPPGKGLEWIGDIYYTGSTYYNPSLKGRVTISVDTSKNQFSLKLSSVTAADTAVYYCAREDVILRGGSDYWGQGTLVTVSS VL: SYELTQPPSVSVSPGQTASITCSGQRLGDKYASWYQQKPGQSPVLVIYEDSKRPSGIPERFSGSNSGDTATLTISGTQPMDEADYYCQAWDRDTGVFGYGTKVTVL | 6.26 | – | 0.000352 | 56200
10 | E9.66 (antibody, V domains shown) VH: EVQLQESGPGLVKPSETLSLTCTVSGGSISSSSYYWGWIRQPPGKGLEWIGDIYYTGSTYYNPSLKSRVTISVDTSKNQFSLKLSSVTAADTAVYYCAREGVPLGGGADKWGQGTLVTVSS VL: SYELTQPPSVSVSPGQTASITCSGQRLGDKYASWYQQKPGQSPVLVIYEDSKRPSGIPERFSGSNSGDTATLTISGTQPMDEADYYCQAWDRDTGVFGYGTKVTVL | 0.14 | – | 9.1e-06 | 65500
11 | E9.11 (antibody, V domains shown) VH: EVQLQESGPGLVKPSETLSLTCTVSGGSISSSSYYWGWIRQPPGKGLEWIGDIYYTGSTYYNPSLKSRVTISVDTSKNQFSLKLSSVTAADTAVYYCAREAVPLGGGSDYWGQGTLVTVSS VL: SYELTQPPSVSVSPGQTASITCSGQRLGDKYASWYQQKPGQSPVLVIYEDSKRPSGIPERFSGSNSGDTATLTISGTQPMDEADYYCQAWDRDTGVFGYGTKVTVL | 0.17 | – | 8.9e-06 | 53100
12 | E9-SE4 (antibody, V domains shown) VH: EVQLQESGPGLVKPSETLSLTCTVSGGSISSSSYYWGWIRQPPGKGLEWIGDIYYTGSTYYNPSLKSRVTISVDTSKNQFSLKLSSVTAADTAVYYCAREDVILRGGSDYWGQGTLVTVSS VL: LYVLTQPPSVSVSPGQTASITCSGQRLGDKYASWYQQKPGQSPVLVIYEDSKRPSGIPERFSGSNSGDTATLTISGTQTMDEADYLCQAWDRDTGVFGGGTKVTVLG | 3.92 | 0.14 | – | –
13 | E9.48 (antibody, V domains shown) VH: EVQLQESGPGLVKPSETLSLTCTVSGGSISSSGYYWGWIRQPPGKGLEWIGDINYRGSTYYNPSLKSRVTISVDTSKNQFSLKLSSVTAADTAVYYCAREDVILRGGSDYWGQGTLVTVSS VL: SYELTQPPSVSVSPGQTASITCSGQRLGDKYASWYQQKPGQSPVLVIYEDSKRPSGIPERFSGSNSGDTATLTISGTQPMDEADYYCQAWDRDTGVFGYGTKVTVL | 4.71 | – | 7.91e-05 | 16800
14 | E9.16 (antibody, V domains shown) VH: EVQLQESGPGLVKPSETLSLTCTVSGGSISSSSYYWGWIRQPPGKGLEWIGDIYYTGSTYYNPSLKSRVTISVDTSKNQFSLKLSSVTAADTAVYYCAREDVILRGGSDYWGQGTLVTVSS VL: SYELTQPPSVSVSPGQTASITCSGERLGDKYVSWYQQKPGQSPVLVIYEDFKRPSGIPERFSGSNSGDTATLTISGTQPMDEADYYCQAWDRDTGVFGYGTKVTVL | 1.52 | – | 3.79e-05 | 24900
15 | E9.18 (antibody, V domains shown) VH: EVQLQESGPGLVKPSETLSLTCTVSGGSISSSGYYWGWIRQPPGKGLEWIGDINYAGSTYYNPSLKSRVTISVDTSKNQFSLKLSSVTAADTAVYYCAREDVILRGGSDYWGQGTLVTVSS VL: SYELTQPPSVSVSPGQTASITCSGQRLGDKYASWYQQKPGQSPVLVIYEDSKRPSGIPERFSGSNSGDTATLTISGTQPMDEADYYCQAWDRDTGVFGYGTKVTVL | 1 | – | 2.63e-05 | 26300
16 | E9.38 (antibody, V domains shown) VH: EVQLQESGPGLVKPSETLSLTCTVSGGSISSSSYYWGWIRQPPGKGLEWIGDIYYTGSTYYNPSLKSRVTISVDTSKNQFSLKLSSVTAADTAVYYCAREDVILRGGSDYWGQGTLVTVSS VL: SYELTQPPSVSVSPGQTASITCSGQRLGDKYVSWYQQKPGQSPVLVIYEDSKRPSGIPERFSGSNSGDTATLTISGTQPMDEADYYCQAWDRDVGVFGSGTKVTVL | 1.44 | – | 3.47e-05 | 24200
17 | E9-SE6 (antibody, V domains shown) VH: EVQLQESGPGLVKPGETLSLTCTVSGGSISSSSYYWGWIRQAPGKGLEWIGDIYYTGSTYYNPSLKSRVTISVDTSKNQFYLKLSSVRAEDTAVYYCAREDVILRGGSDYWGQGTLVTVSS VL: LYVLTQPPSVSVSPGQTASITCSGQRLGDKYASWYQQKPGQSPVLVIYEDSKRPSGIPERFSGSNSGDTATLTISGTQTMDEADYLCQAWDRDTGVFGGGTKVTVLG | 6.55 | 0.13 | – | –
18 | E9.17 (antibody, V domains shown) VH: EVQLQESGPGLVKPSETLSLTCTVSGGSISSSSYYWGWIRQPPGKGLEWIGDIYYTGSTYYNPSLKSRVTISVDTSKNQFSLKLSSVTAADTAVYYCAREEAILGGGSDYWGQGTLVTVSS VL: SYELTQPPSVSVSPGQTASITCSGQRLGDKYASWYQQKPGQSPVLVIYEDSKRPSGIPERFSGSNSGDTATLTISGTQPMDEADYYCQAWDRDTGVFGYGTKVTVL | 0.16 | – | 1.23e-05 | 75100
19 | E9.13 (antibody, V domains shown) VH: EVQLQESGPGLVKPSETLSLTCTVSGGSISSSSYYWGWIRQPPGKGLEWIGDIYYTGSTYYNPSLKSRVTISVDTSKNQFSLKLSSVTAADTAVYYCAREDVILRGGSDYWGQGTLVTVSS VL: SYELTQPPSVSVSPGQTASITCSGDTLGDKYVSWYQQKPGQSPVLVIYEDSERPSGIPERFSGSNSGDTATLTISGTQPMDEADYYCQAWDSETGVFGSGTKVTVL | 0.63 | – | 4.95e-05 | 79200
20 | E9.65 (antibody, V domains shown) VH: EVQLQESGPGLVKPSETLSLTCTVSGGSIRNSRYHWGWIRQPPGKGLEWIGDIYYTGSTYYNPSLKGRVTISVDTSKNQFSLKLSSVTAADTAVYYCAREDVILRGGSDYWGQGTLVTVSS VL: SYELTQPPSVSVSPGQTASITCSGQRLGDKYASWYQQKPGQSPVLVIYEDSKRPSGIPERFSGSNSGDTATLTISGTQPMDEADYYCQAWDRDTGVFGYGTKVTVL | 12.9 | – | 0.000414 | 32100
